From the supplement of paper PMC10567573

B1: SLC2A12 (parent)
chain: CLLGLGSLVLILSLSYTVLIVGRI
B2: KIAA1161 (parent)
chain: FMPAMQFSIPPWRYDAEVVAIAQK

Variants of: B1
Assay: protein stability index of a GFP-peptide fusion (GPS, HEK-293T) (PSI 1-6); higher = more stable
Conditions: c terminus: a fixed tail appended
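Further: lentivirally expressed fusions sorted by FACS into six bins by GFP to DsRed ratio, PSI derived from sequencing read proportions per bin multiplied by bin number.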

| Variant | protein stability index |
| --- | --- |
| R23L | 2.88 |
| R23K | 3.91 |
| R23I | 1.07 |
| R23E | 3.06 |
| R23F | 1.85 |
| R23C | 3.83 |
| R23A | 1.68 |
| R23Y | 1.35 |
| R23M | 2.33 |
| R23Q | 2.57 |
| R23T | 2.41 |
| V18K | 2.98 |
| V18L | 2.48 |
| V18T | 2.93 |
| V18M | 4.12 |
| V18H | 2.43 |
| V18S | 3.07 |
| V18F | 1.87 |
| S13R | 1.87 |
| L14F | 2.16 |
| L14V | 3.61 |
| L14H | 3.01 |
| L14E | 2.46 |
| L14D | 2.03 |

| Variant | protein stability index |
| --- | --- |
| Y16W | 1.91 |
| Y16M | 3.02 |
| Y16P | 3.53 |
| T17F | 3.38 |
| T17E | 3.32 |
| T17N | 2.91 |
| T17Y | 2.3 |
| S15D | 2.87 |
| S15H | 3.25 |
| S15I | 3.21 |
| S15W | 1.8 |
| S15C | 4.02 |
| S15Q | 1.91 |
| S15N | 3.57 |
| I24L | 2.31 |
| I24F | 2.09 |
| I24W | 3.02 |
| I24H | 4.96 |
| I24K | 2.5 |
| I24V | 2.79 |
| I24R | 4.47 |
| I24S | 4.47 |
| G22T | 4.65 |
| G22K | 2.08 |

| Variant | protein stability index |
| --- | --- |
| G22V | 3.25 |
| G22Q | 3.23 |
| G22E | 3.84 |
| G22H | 2.75 |
| G22F | 3.4 |
| G22S | 2.04 |
| L19V | 3.24 |
| L19P | 3.35 |
| L19N | 2.96 |
| L19R | 4.06 |
| L19W | 1.77 |
| L19H | 3.95 |
| V21Y | 3.38 |
| V21E | 1.97 |
| V21I | 3.74 |
| V21L | 2.77 |
| V21C | 3.06 |
| V21P | 3.7 |
| V21F | 4.2 |
| I20N | 3.97 |
| I20P | 2.85 |
| I20L | 3.62 |
| I20M | 2.69 |
| I20Q | 3.17 |

Variants of: B2
Assay: as above
Conditions: c terminus: a fixed tail appended

| Variant | protein stability index |
| --- | --- |
| F1N | 2.61 |
| F1S | 1.84 |
| F1L | 2.37 |
| F1W | 1.95 |
| F1P | 2.33 |
| F1A | 2.3 |
| F1R | 3.23 |
| F1M | 2.83 |
| F1V | 2.7 |
| F1G | 2.04 |
| F1C | 1.97 |
| F1I | 2.52 |
| F1D | 3.37 |
| F1Q | 3.2 |
| A16Q | 1.62 |
| A16P | 2.08 |
| A16W | 1.66 |
| A16N | 2.02 |
| A16F | 2.28 |
| A16R | 2.65 |
| A16K | 1.59 |
| A16V | 2.52 |
| A16I | 3.3 |
| A16M | 1.53 |

| Variant | protein stability index |
| --- | --- |
| A16D | 2.25 |
| P10T | 2 |
| P10K | 2.57 |
| P10M | 1 |
| P10L | 2.99 |
| P10G | 1.33 |
| P10Y | 2.34 |
| P10S | 2.42 |
| P10I | 2.86 |
| P10Q | 1.64 |
| P10H | 1.77 |
| F7C | 2.61 |
| F7M | 1.91 |
| F7D | 2.9 |
| F7K | 1.7 |
| F7W | 1.68 |
| F7Y | 1.7 |
| F7S | 1.6 |
| F7A | 1.97 |
| F7E | 2.34 |
| F7Q | 2.89 |
| F7G | 1.61 |
| F7L | 1.82 |
| F7T | 2.24 |

| Variant | protein stability index |
| --- | --- |
| F7N | 2.24 |
| M5N | 1.9 |
| M5T | 1.68 |
| M5V | 2.23 |
| M5C | 2.11 |
| M5Q | 2.24 |
| M5E | 2.81 |
| M5S | 2.24 |
| M5Y | 1.77 |
| M5K | 1.95 |
| M5D | 1.48 |
| M5G | 3.64 |
| M5P | 2.6 |
| S8G | 1.65 |
| S8Q | 2.11 |
| S8K | 2.93 |
| S8R | 1.99 |
| S8T | 1.64 |
| S8M | 1.71 |
| S8L | 2.05 |
| S8I | 2.81 |
| S8A | 1.69 |
| S8D | 1.54 |
| I9T | 1.8 |

| Variant | protein stability index |
| --- | --- |
| I9S | 2.08 |
| I9R | 1.6 |
| I9Y | 2.83 |
| I9M | 2.04 |
| I9N | 2.28 |
| I9E | 2.37 |
| I9W | 3.43 |
| I9A | 2 |
| I9G | 1.95 |
| D15L | 1.5 |
| D15S | 1.24 |
| D15G | 1.75 |
| D15M | 2.56 |
| D15N | 3.08 |
| D15K | 1.25 |
| D15Y | 3.05 |
| D15Q | 1.94 |
| E17V | 1.24 |
| E17C | 1.68 |
| E17Y | 2.45 |
| E17D | 1.54 |
| E17N | 1.62 |
| E17F | 2.13 |
| E17I | 1.52 |

| Variant | protein stability index |
| --- | --- |
| E17Q | 3.67 |
| E17K | 2.66 |
| E17P | 1.48 |
| E17A | 1.2 |
| R13V | 1.16 |
| R13W | 1.58 |
| R13A | 2.04 |
| R13Y | 1.69 |
| R13K | 2.21 |
| R13F | 1.1 |
| R13Q | 2.53 |
| R13S | 1.63 |
| R13G | 1.53 |
| K24S | 1.68 |
| K24C | 1.61 |
| K24P | 2.01 |
| K24M | 1.33 |
| K24V | 2.36 |
| K24H | 2.54 |
| K24D | 1.82 |
| K24A | 2.31 |
| K24N | 2.58 |
| K24L | 2.62 |
| K24R | 1.67 |

| Variant | protein stability index |
| --- | --- |
| K24G | 1.33 |
| K24T | 1.63 |
| K24E | 1.82 |
| V19F | 2.48 |
| V19Y | 3.33 |
| V19P | 4.1 |
| V19A | 2.18 |
| V19M | 1.81 |
| V19L | 1.47 |
| V19R | 2.83 |
| V19S | 1.48 |
| V19I | 1.46 |
| V19H | 1.56 |
| V19D | 2.82 |
| V19G | 2.2 |
| V19K | 1.99 |
| V19Q | 2.5 |
| V19C | 2.39 |
| A4K | 1.87 |
| A4C | 1.47 |
| A4T | 1.76 |
| A4D | 3.44 |
| A4Q | 1.97 |
| A4M | 1.86 |

| Variant | protein stability index |
| --- | --- |
| A4R | 2.66 |
| A4N | 1.56 |
| A4P | 2.29 |
| A4E | 2.34 |
| A4H | 2.68 |
| Q23N | 1.85 |
| Q23T | 1.92 |
| Q23D | 2.69 |
| Q23K | 2.2 |
| Q23A | 2.23 |
| P3C | 2.02 |
| P3K | 2.58 |
| P3L | 2.22 |
| P3Q | 1.28 |
| P3M | 4 |
| P3V | 2.33 |
| P3I | 2.58 |
| P3F | 1.73 |
| P3N | 2.39 |
| Y14L | 1.59 |
| Y14C | 1.67 |
| Y14D | 2.2 |
| Y14I | 1.05 |
| Y14P | 1.79 |

| Variant | protein stability index |
| --- | --- |
| Y14T | 2.82 |
| Y14A | 2.2 |
| Y14G | 1.93 |
| Q6A | 2.33 |
| Q6V | 3.24 |
| Q6D | 1.92 |
| Q6E | 1.83 |
| Q6R | 1.82 |
| Q6S | 1.83 |
| Q6H | 1.86 |
| Q6Y | 1.34 |
| Q6K | 1.93 |
| Q6F | 1.4 |
| Q6N | 2.66 |
| Q6G | 1.83 |
| A22V | 2.01 |
| A22H | 1.9 |
| A22T | 2.51 |
| A22N | 1.6 |
| A22D | 1.96 |
| A22K | 1.88 |
| A22Y | 1.23 |
| A22P | 2.58 |
| V18S | 2.05 |

| Variant | protein stability index |
| --- | --- |
| V18D | 2.36 |
| V18C | 1.86 |
| V18T | 1.88 |
| V18M | 1.88 |
| V18Y | 2.03 |
| V18A | 2.17 |
| V18G | 2.6 |
| V18E | 2.63 |
| V18H | 2.93 |
| V18P | 2.96 |
| V18R | 3.34 |
| W12A | 2.31 |
| W12P | 2.74 |
| W12Q | 2.3 |
| W12I | 2.18 |
| W12N | 2.49 |
| W12E | 2.08 |
| W12S | 2.48 |
| W12K | 2.17 |
| W12R | 2.39 |
| W12C | 1.73 |
| W12G | 2.76 |
| W12L | 2.23 |
| W12M | 2.7 |

| Variant | protein stability index |
| --- | --- |
| W12T | 2.44 |
| A20R | 1.98 |
| A20M | 1.32 |
| A20F | 2.54 |
| A20H | 1.97 |
| A20K | 2.34 |
| A20V | 1.91 |
| A20T | 1.92 |
| A20Q | 2.41 |
| A20P | 2.16 |
| A20E | 2.42 |
| A20W | 1.04 |
| A20S | 1.59 |
| A20C | 2.22 |
| A20N | 3.44 |
| P11I | 1.59 |
| P11T | 1.69 |
| P11Q | 1.78 |
| P11Y | 2.28 |
| P11D | 2.37 |
| P11S | 2.03 |
| P11N | 2.11 |
| P11V | 1.01 |
| P11F | 2.17 |

| Variant | protein stability index |
| --- | --- |
| P11H | 3.1 |
| P11A | 1.61 |
| P11R | 1.48 |
| M2N | 1.61 |
| M2A | 2.47 |
| M2Y | 1.79 |
| M2K | 2.38 |
| M2C | 1.97 |
| M2L | 1.46 |
| M2D | 3.16 |
| M2W | 2.09 |
| M2Q | 2.71 |
| I21S | 2.38 |
| I21N | 2.11 |
| I21R | 2.31 |
| I21P | 2.16 |
| I21E | 2.6 |
| I21L | 1.93 |
| I21K | 2.07 |
| I21Y | 1.64 |
| I21T | 2.17 |
| I21F | 2.52 |
